± gives the standard deviation of the averaged measurements.
Tested on: Saccharomyces cerevisiae
Experiment: protein stability index of tFT-peptide fusion (C-terminal peptide) (PSI (0-1 scale)); higher = more stable (slower turnover)
Conditions: genetic background: wild type; temperature: 30 C
Description: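 Multiplexed protein stability (MPS) profiling in S. cerevisiae. Random 12-aa peptides (tFT-X12 library) are fused to the C-terminus of a sfGFP-mCherry tandem fluorescent timer, after mCherry and a GGGS linker. Cells are FACS-sorted into 8 mCherry/sfGFP bins and deep-sequenced. The protein stability index (PSI) is the read-weighted bin average, scaled from 0 (unstable) to 1 (stable). Only peptides with >10 reads are reported; cells were grown at 30 °C in SC-His with glucose.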
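Note: PSI is a weighted mean of sequencing reads over stability bins, variants kept only with over 10 reads, mCherry proximal and sfGFP distal, peptide attached via GGGS linker.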

Sequence	protein stability index
EEGKSTREKEGG	0.685 ± 0.036
EQQLSHENMQFK	0.68 ± 0.01
EVVEDGAEEVGR	0.685 ± 0.053
APSDRRRTPTPT	0.69 ± 0.013
MRPRTSKKPQLE	0.744 ± 0.044
APTPPPPSPLAP	0.73 ± 0.051
PGPKAAHSKRDR	0.662 ± 0.058
MKKKTTKTKIKK	0.7205 ± 0.0051
IDLVLCIGLGYQ	0.62 ± 0.063
VVLSRSLTDLVR	0.677 ± 0.077
KKPVALVESRRV	0.662 ± 0.055
PSLHRPPLLPCP	0.674 ± 0.013
KTFRTYRTYFRK	0.682 ± 0.023
PAPPPPLLPRSL	0.727 ± 0.011
MCPRFCPPLRSF	0.686 ± 0.084
KKEKKKQKRNNN	0.782 ± 0.013
VSVFNFPSLFVG	0.66 ± 0.063
ERERQREKEKLK	0.6735 ± 0.0038
PGRVAGGCGVLG	0.64419 ± 0.00049
IGLKKVVKIRKD	0.614 ± 0.039
SLPRLRSCPSSF	0.774 ± 0.18
SMNCTSLRPGSF	0.7065 ± 0.0015
ASPAWYARGISR	0.733 ± 0.033
RVEADMKKRWTG	0.716 ± 0.028
RLRFIGDCKSST	0.637 ± 0.031

Sequence	protein stability index
SRYRPTGAHYGH	0.714 ± 0.064
HGCQGKVRQSHR	0.651 ± 0.039
EDSGRPGRPSTH	0.662 ± 0.048
PAVARPLGPPPY	0.714 ± 0.045
DGASAARQGGAR	0.7171 ± 0.00082
TSSASVCASSVQ	0.588 ± 0.023
LAGVTLPRPSSA	0.6633 ± 0.0046
YHECWRTFTLCV	0.532 ± 0.007
SFFGRVDSRSLP	0.7184 ± 0.0025
RATRLFPPPHFS	0.7 ± 0.037
RESTGRDQRGIV	0.673 ± 0.018
PPPSPPLPPPLL	0.696 ± 0.05
EIYARVQERLKI	0.617 ± 0.016
SFPASSLPHSLL	0.716 ± 0.043
VLFCQLFCDFFG	0.631 ± 0.084
VVIFPPTFISGG	0.643 ± 0.1
WGAKGLESIHVM	0.6 ± 0.019
PPLYPPPRDLPP	0.5453 ± 0.0038
GFKDRCKDEKSL	0.713 ± 0.11
RAAREASQDIPN	0.753 ± 0.12
CCCGSGFFLLKV	0.525 ± 0.021
FRRILGTIKLGR	0.69 ± 0.023
QYKEFYYQNNRR	0.562 ± 0.062
IDPVVFCEYTHA	0.688 ± 0.011
FPFTLSPTLFHS	0.714 ± 0.08

Sequence	protein stability index
GHVEGPGDAESS	0.701 ± 0.071
RNTKGTIKKKKE	0.715 ± 0.074
PSGNGAPRVHRK	0.65 ± 0.011
VDVSGIKAGRPW	0.681 ± 0.011
RSLGLVGRGFWG	0.728 ± 0.086
LLINTARWSEAG	0.662 ± 0.049
DGRMGAGVAGTG	0.636 ± 0.069
FPLLCAAPLLSS	0.594 ± 0.0012
EDILWADVPYSK	0.759 ± 0.039
SVRCPPLSPRPP	0.667 ± 0.036
LGVPGSGDGEWW	0.592 ± 0.029
KIKDKKNKQKKH	0.709 ± 0.034
GLPPPPQPLPHA	0.726 ± 0.14
AKQVVGASWIVA	0.607 ± 0.044
CWCRVGSSGCVR	0.668 ± 0.039
PRAANRWASKAL	0.6941 ± 0.0069
VSMPVGWRSWGG	0.694 ± 0.013
RASLPKSLPVSY	0.604 ± 0.07
GLWQRVGIVIGC	0.58 ± 0.017
EKRAKKKVKIII	0.62 ± 0.035
KIRNLELNVQTN	0.688 ± 0.075
VGEGWWQKGMEV	0.676 ± 0.079
SLPFLPPSAPLP	0.76 ± 0.014
AFDRVPLVFVST	0.564 ± 0.011
FCRLSHYLSASP	0.687 ± 0.17

Sequence	protein stability index
RSCVGGISVLVL	0.466 ± 0.085
SSLRPSRPPPAS	0.6988 ± 0.0057
SGCVARTRGLSG	0.62 ± 0.018
PVLPPCLLPTPV	0.509 ± 0.093
SFFFRSYCFPAP	0.7169 ± 0.0037
LDAVRCRDKAVV	0.6537 ± 0.0036
ISLRAPVRPECV	0.709 ± 0.031
LRPLPPPAPCKF	0.774 ± 0.04
PLPPPPPPPPPT	0.681 ± 0.023
SRLLLPIGISRV	0.543 ± 0.16
YRQAAIKNIKRK	0.683 ± 0.014
SSTCSPPRLSQS	0.679 ± 0.046
FMSGIVDLQRPL	0.691 ± 0.034
IAAPANQGHSKP	0.694 ± 0.042
WIDSGCALVEIA	0.701 ± 0.045
VTREEVSAGRGR	0.657 ± 0.058
PPLPAPPPPFPP	0.59 ± 0.022
LGWGGGGPLSGG	0.7197 ± 0.0054
ILSASSLFPFVS	0.693 ± 0.053
GPWGGRLSWAPG	0.636 ± 0.0092
CIRPPPPSPKLM	0.694 ± 0.0096
RRGENQSFPACR	0.701 ± 0.028
EHQNHNTARKRH	0.69835 ± 0.00027
LDYDTTNSMWLS	0.586 ± 0.09
RVVGLWGSACMG	0.603 ± 0.01

Sequence	protein stability index
SATSFLAAGPPT	0.6957 ± 0.0063
ASTRPFYVSSFG	0.741 ± 0.13
APGPAAPGHGYL	0.744 ± 0.039
ILLFLLPFSHRL	0.658 ± 0.076
KYKEEINEKIFN	0.646 ± 0.022
RRPGGQGHPNAG	0.752 ± 0.023
PLSPPHRLTAAL	0.756 ± 0.19
PPVWSSLPPPPF	0.721 ± 0.018
LKRSDFSFLEKV	0.701 ± 0.075
EKKKKKKEEREK	0.728 ± 0.16
GGGGIREERVRE	0.766 ± 0.19
RRTTYKKVKRKK	0.65 ± 0.062
YDLLLLLSLSRP	0.644 ± 0.012
PPPRPHPTRLSY	0.576 ± 0.054
WERREGTGMRAG	0.748 ± 0.051
RVLPPAPLQALQ	0.645 ± 0.018
SPVSPPLVRPPY	0.642 ± 0.054
PPPPPLLPPPPA	0.721 ± 0.02
GDCYLCSACEWW	0.753 ± 0.016
SQLGRPSLHPVR	0.6601 ± 0.0024
PTGYPGPRMMVW	0.771 ± 0.3
PVWLLHIRPPIP	0.681 ± 0.058
PSSTLRLSPSSL	0.728 ± 0.023
HCLLLSLVFFFW	0.727 ± 0.03
PPIRLPSPLLPH	0.7123 ± 0.0056

Sequence	protein stability index
SPPRSPPTFPPC	0.704 ± 0.063
RFCGSGPIVPGQ	0.707 ± 0.019
PPPSPPSTTPPL	0.672 ± 0.07
VPPHSLPPPTHP	0.753 ± 0.048
PAPLPADTFVEC	0.668 ± 0.065
LCVGAGCAFEEG	0.675 ± 0.025
DASGGKKVSRGT	0.571
GPVQSISMTVGH	0.6548 ± 0.0025
PHTHPPASLPPV	0.638 ± 0.033
RKKKKKKENKRR	0.754 ± 0.054
DIVSGGLCVEVL	0.643 ± 0.033
PTPLSRPPTNAA	0.634 ± 0.042
KKRVSKETDKVK	0.693 ± 0.027
LKPKLDFHIWDV	0.67 ± 0.1
FVPPPVVPPFPL	0.716 ± 0.017
PPPPTPPPHSPP	0.656 ± 0.022
GHVGFSKVSGKG	0.664 ± 0.026
PPPPPLQRFPPF	0.644 ± 0.046
YIVARMVRAVIP	0.741 ± 0.035
GGFWLGVGSRVG	0.711 ± 0.06
RRVPVVSRAGGG	0.697 ± 0.067
PPLFPPLAPLHR	0.72 ± 0.032
SPRLPLSRPLVV	0.574 ± 0.0064
FGEAFYVGCVHV	0.698 ± 0.037
VGLGEWMGALGV	0.6634 ± 0.006

Sequence	protein stability index
KKREEKKEKRKR	0.643 ± 0.054
HTRLCFSPPRGI	0.686 ± 0.02
RHISRIYVERRY	0.695 ± 0.02
PPLRPPPLHPPR	0.705 ± 0.036
EPCIVCPMSRQG	0.773 ± 0.11
VAGFPSPVVLGW	0.607 ± 0.085
DRRLPVSPPTIV	0.774 ± 0.12
GGFVVVGGVVGV	0.72 ± 0.013
CLRWSRVGTVVV	0.564 ± 0.025
PPRPPPPPLRST	0.758 ± 0.078
PPLNPHPPAPTP	0.724 ± 0.032
IIVWGGAGLWGV	0.59 ± 0.0027
IRGCSGSDKNKS	0.643 ± 0.047
GGAGLGSRSSAL	0.743 ± 0.008
PPLFSSTNKNPR	0.664 ± 0.0076
DEKKMEKQTNRT	0.638 ± 0.045
PLLHPTGFMGFP	0.74 ± 0.028
GGGCLRGFWCVW	0.724 ± 0.046
GIGGSGLVSVVD	0.716 ± 0.039
PRFPQPSTLLPP	0.698 ± 0.021
HMCPWVWPVRDQ	0.691 ± 0.024
GGGERTAGVGQT	0.733 ± 0.05
RYKALEAQGPRF	0.717 ± 0.0008
PRHVISQCFSRT	0.6641 ± 0.005
CPFPLPPPTLPP	0.657 ± 0.01

Sequence	protein stability index
GNFIGSWLHTVD	0.811 ± 0.11
VGFISRIKSLYV	0.648 ± 0.0096
GRAWWVGGEGVW	0.677 ± 0.014
LCLWVWGSVVGG	0.6123 ± 0.0015
SPPLSRSPPPTL	0.674 ± 0.039
ESKATIRTRARN	0.74 ± 0.028
PLLAQSALFVIA	0.5904 ± 0.0055
RRVGPVSPNWIS	0.6499 ± 0.0042
PGFVGPWAGGGA	0.735 ± 0.12
GGWGSRGRVGDI	0.744 ± 0.045
KKKKSKIKKKRE	0.665 ± 0.042
VGMCVGEVVAIV	0.521 ± 0.015
SRGGGWSEGGEG	0.716 ± 0.028
SAFDVLCHVVVG	0.634 ± 0.021
LFLPPLFRRSPF	0.684 ± 0.018
IFGMSGYVSIIL	0.671 ± 0.014
LISRFFPSRSAP	0.854 ± 0.021
PSGFLFPLSPPA	0.698 ± 0.01
TNKKKNRNKKAK	0.657 ± 0.073
APRPPSLSPSPP	0.681 ± 0.0076
QIQRLGGGGHCG	0.762 ± 0.1
